Our source for the Kd and Ka (M-1 (unit not given)) values is paper PMC6137056.

For data set [1], the system named is UVI31+ (wild type) (Chlamydomonas reinhardtii), PDB:5ZB6_1. Put plainly: EMSA. The settings on record: ITC: 10 mM Tris-HCl pH 7.5, 50 mM NaCl, 5% glycerol, 5 mM MgCl2, 0.1 mM EDTA, 25 C, EMSA: 10 mM Na-phosphate pH 7.5, 10 mM NaCl, 1 mM MgCl2, 37 C, 5 min, 1 uM …. For orientation: Mobility shift assays separate free from complexed probe on a gel.
The test system is the same in data set [2]. The experiment in a line: ITC. The settings on record: ITC: 10 mM Tris-HCl pH 7.5, 50 mM NaCl, 5% glycerol, 5 mM MgCl2, 0.1 mM EDTA, EMSA: 10 mM Na-phosphate pH 7.5, 10 mM NaCl, 1 mM MgCl2, 37 C, 5 min, 1 uM …; for Ka (M-1 (unit not given)): 5 mM MgCl2, 25 C.

The substance 50-bp dsDNA (EMSA) displayed a Kd in data set [1] of 1100 nM.
“CGCGAATTCGCG (double strand) [12-mer self-complementary ds-DNA]”: the Ka (M-1 (unit not given)) amounted to 3.05e+06 in data set [2] (K1, sequential binding model) and 11400 in data set [2] (K2, sequential binding model). Moreover, the Kd in data set [2] (apparent Kd, two sets of sites, 5 mM MgCl2, 50 mM NaCl, pH 7.5, 25 C) stood at 5360 nM.
ssDNA (EMSA, 50-mer): in data set [1] (1 mM MgCl2, partial loss of ssDNA by cleavage), the Kd came out at 1400 nM.
